Here are results for one substance from PMC3827234.

The experiment has as its target hamster integrin αv subunit, endogenous in CHO cells (Chinese hamster (endogenous in CHO)). The experiment can be described thus: flow cytometry on cells; CHO cells transiently transfected with the β3 plasmid alone, harvested after 48 h; the chimeric complex of human β3 and hamster αv on the cell surface was stained with FITC anti-αvβ3 (LM609; Figure 2C) or with the monoclonal antibody to β3 (Figure 2D); read-out is the percentage of positive cells. A general note: A flow cytometer gives signals particle by particle.

Regarding “integrin β3 subunit with the Pro189Ser substitution (P163S in the mature protein) (from UniProt P05106 27-788) (receptor)”, the percent of the level of the WTβ3-hamster αv complex (LM609 staining) turned out to be 78%.
